Values of other authors as cited in PMC4965862.

Molecular target: Cys45 (UniProt position 45, AFTGICQGELD)
Conditions: reduced enzyme (Cys45 thiol/thiolate)

Alkyl hydroperoxide reductase E (AhpE), one-cysteine peroxiredoxin (Mycobacterium tuberculosis)
pKa: 5.2
